Values quoted from earlier work in article PMC7481795.
Where two headings read alike, the source gives them in different places.

Tests used:
[1] = target: β-glucuronidase (Homo sapiens) (UniProt P08236)
[2] = target: β-glucuronidase (Homo sapiens) (UniProt P08236); remark: listed apart in the source

Sequence of β-glucuronidase (Homo sapiens) (P08236 23-651): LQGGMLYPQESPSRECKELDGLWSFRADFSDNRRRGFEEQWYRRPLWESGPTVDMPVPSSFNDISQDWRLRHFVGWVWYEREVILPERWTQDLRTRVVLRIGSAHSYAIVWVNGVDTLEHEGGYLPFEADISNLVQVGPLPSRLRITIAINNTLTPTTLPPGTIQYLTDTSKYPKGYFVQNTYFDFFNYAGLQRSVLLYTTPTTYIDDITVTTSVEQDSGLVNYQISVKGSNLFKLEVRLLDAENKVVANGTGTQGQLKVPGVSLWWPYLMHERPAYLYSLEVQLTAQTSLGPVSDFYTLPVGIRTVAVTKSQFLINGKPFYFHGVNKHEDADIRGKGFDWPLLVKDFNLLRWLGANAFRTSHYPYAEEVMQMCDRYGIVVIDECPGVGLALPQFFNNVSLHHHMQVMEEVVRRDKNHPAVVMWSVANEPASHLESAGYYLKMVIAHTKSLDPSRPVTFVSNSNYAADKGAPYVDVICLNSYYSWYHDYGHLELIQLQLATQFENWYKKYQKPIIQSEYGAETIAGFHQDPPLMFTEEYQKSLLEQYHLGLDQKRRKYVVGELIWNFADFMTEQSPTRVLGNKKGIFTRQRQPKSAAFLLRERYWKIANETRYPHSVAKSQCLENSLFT
Sequence of cation-independent mannose 6-phosphate receptor domain 3 (P08169 332-477): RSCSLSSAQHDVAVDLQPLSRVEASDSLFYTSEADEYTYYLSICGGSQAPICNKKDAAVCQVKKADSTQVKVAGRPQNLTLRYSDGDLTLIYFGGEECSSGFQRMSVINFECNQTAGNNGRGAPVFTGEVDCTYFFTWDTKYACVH
Sequence of cation-independent mannose 6-phosphate receptor domains 1-3 (P08169 45-477): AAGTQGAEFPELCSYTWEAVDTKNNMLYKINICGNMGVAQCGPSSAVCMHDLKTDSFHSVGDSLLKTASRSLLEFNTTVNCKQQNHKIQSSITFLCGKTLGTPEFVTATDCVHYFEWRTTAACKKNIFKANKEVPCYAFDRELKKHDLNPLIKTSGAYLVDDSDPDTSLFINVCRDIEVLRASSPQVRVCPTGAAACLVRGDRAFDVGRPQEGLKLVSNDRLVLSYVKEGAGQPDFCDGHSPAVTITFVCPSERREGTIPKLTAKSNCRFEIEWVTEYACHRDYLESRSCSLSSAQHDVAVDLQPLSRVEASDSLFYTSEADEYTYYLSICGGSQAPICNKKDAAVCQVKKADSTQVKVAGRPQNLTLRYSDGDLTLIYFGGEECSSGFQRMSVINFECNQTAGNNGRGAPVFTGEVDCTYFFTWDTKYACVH

Kd [1] [nM]	Kd [2] [nM]	Substance
500	–	cation-independent mannose 6-phosphate receptor domain 3 (from UniProt P08169)
–	0.5	cation-independent mannose 6-phosphate receptor domains 1-3 (from UniProt P08169)
